Reference: patent US20110076723A1, “ANTIBODY-PEPTIDE FUSED SYNERGIBODY” (SAMSUNG ELECTRONICS CO., LTD., priority 2008, published 2011)
Blank lines part the entries; values can stand above or below the binder they belong to.

Columns and labels:
[1] = molecular target: T1, recombinant VEGFR-2 protein (water soluble extracellular site of human VEGFR-2 with Fc of human IgG1 … (human, UniProt P35968 20-764)); experiment: competitive ELISA; synergibody titrated with 1 nM VEGFR-2 on coated VEGF 165
T1 construct: extracellular domain; Bought; not shown: Fc of human IgG1
Description: Competitive ELISA is performed using the peptides synthesized above in Section 6A in order to assess the molecular interaction of the binders. […] Then the plate is washed five times with PBS containing 0.1% Tween-20, and blocked at room temperature for two hours with PBS containing 5% BSA. For VEGF:VEGFR-2 neutralization ELISA, each of the peptides synthesized in Section 6A above are diluted to one-fourth each time from 100 nM with PBS containing 1 nM VEGFR-2 and 1% BSA, and adjusted to 6.1 pM. 100 μl of peptide/VEGFR-2 solution is added to each well and the plate is left to react at room temperature for two hours. Subsequently, it is washed five times with PBS containing 0.1% Tween-20, mouse anti-VEGFR-2 antibodies (R&D Systems) is diluted to about 1:3,000 with PBS containing 1% BSA, and left to react at room temperature for one hour. Then 100 μl of goat anti-mouse-IgG-HRP (Pierce) diluted to about 1:10,000 with PBS containing 1% BSA is added to each well of the plate, left to react at room temperature for one hour, and washed five times with PBS containing 0.1% Tween-20. Lastly, 100 μl of TMB substrate (SIGMA) is added to each well of the plate to induce color reaction. The reaction is stopped by adding 50 μl of 5N H₂SO₄ solution, and the OD₄₅₀ value is read on a plate reader (Molecular Devices). Through the foregoing, the IC₅₀ value for the VEGF:VEGFR-2 binding capacity is obtained.
The method in Example 2, Section 6B above is used, except that, in the present example, each fused protein synergibodies are diluted from 100 nM to one-fourth each time with PBS containing 1% BSA and 1nM VEGFR-2 and adjusted to 6.1 pM for VEGF:VEGF-2 neutralization ELISA.

[2] = molecular target: T2, recombinant hAng-2 (recombinant protein with His tag attached to human Ang-2; R&D Systems) (human, UniProt O15123 19-496); experiment: competitive ELISA; synergibody titrated with 1 nM hAng-2 (His) on coated hTie2-Fc
T2 construct: also called angiopoietin-2; ANGPT2
T2 sequence (looked up): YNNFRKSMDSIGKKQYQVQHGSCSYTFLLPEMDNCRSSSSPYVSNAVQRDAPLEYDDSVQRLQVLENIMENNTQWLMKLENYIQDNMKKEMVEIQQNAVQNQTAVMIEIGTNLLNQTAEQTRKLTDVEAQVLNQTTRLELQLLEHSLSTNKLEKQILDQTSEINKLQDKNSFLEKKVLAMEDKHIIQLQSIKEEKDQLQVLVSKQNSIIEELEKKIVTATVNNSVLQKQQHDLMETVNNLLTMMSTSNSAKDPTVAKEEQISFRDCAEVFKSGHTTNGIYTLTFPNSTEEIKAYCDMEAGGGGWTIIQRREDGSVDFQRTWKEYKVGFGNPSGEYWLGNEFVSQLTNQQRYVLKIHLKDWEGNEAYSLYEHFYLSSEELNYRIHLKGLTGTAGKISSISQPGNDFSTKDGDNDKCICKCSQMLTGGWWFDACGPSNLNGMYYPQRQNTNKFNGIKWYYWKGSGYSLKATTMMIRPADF
Description: A competitive ELISA is performed to assess the molecular interaction of the binders. A 96-well MaxiSorp™ flat-bottom plate (Nunc) is coated with hTie2-Fc (R&D Systems), which is a fused protein including the water-soluble extracellular portion of human Tie-2 and Fc of human IgG₁ dissolved in DMEM culture solution containing 50 μg/ml bovine serum albumin (BSA). The concentration of hTie2-Fc used as a coating material is equivalent to 75% of its maximum binding concentration with 1 nM of recombinant hAng-2 (recombinant protein with His tag attached to human Ang-2; R&D Systems). Then the plate is washed five times with Phosphate Buffer Saline (PBS) containing 0.1% Tween-20 and blocked at room temperature for two hours with PBS containing 5% BSA. Each anti-Ang-2 antibodies are diluted from 100 nM by one-fourth each time with PBS containing 1% BSA and 1 nM hAng-2 and adjusted to 6.1 pM for Ang-2:Tie-2 neutralization ELISA. 100 μl of antibody/hAng-2 solutions are placed in each corresponding well and left to react at room temperature for two hours. Then the wells are washed five times with PBS containing 0.1% Tween-20, and the anti-His antibodies (GE Healthcare) are diluted to about 1:3,000 with PBS containing 1% BSA and left to react at room temperature for one hour. Afterwards, 100 μl of goat anti-mouse-IgG-HRP (Pierce) diluted with PBS containing 1% BSA to about 1:10,000 is added to each well of the plate, left to react at room temperature for one hour, and washed with PBS containing 0.1% Tween-20 five times. Lastly, 100 μl of TMB substrate (SIGMA) is added to each well of the plate to induce color reaction, and the reaction is stopped by adding 50 μl of 5N H₂SO₄ solution. The OD₄₅₀ value is read on a plate reader (Molecular Devices).
The method described in Example 1, Section 3 above is used, except that, in the present example, each fused protein synergibodies are diluted from 100 nM to one-fourth each time with PBS containing 1% BSA and 1 nM hAng-2 and adjusted to 6.1 pM for Ang-2:Tie-2 neutralization ELISA.

T1 sequence (P35968 20-764): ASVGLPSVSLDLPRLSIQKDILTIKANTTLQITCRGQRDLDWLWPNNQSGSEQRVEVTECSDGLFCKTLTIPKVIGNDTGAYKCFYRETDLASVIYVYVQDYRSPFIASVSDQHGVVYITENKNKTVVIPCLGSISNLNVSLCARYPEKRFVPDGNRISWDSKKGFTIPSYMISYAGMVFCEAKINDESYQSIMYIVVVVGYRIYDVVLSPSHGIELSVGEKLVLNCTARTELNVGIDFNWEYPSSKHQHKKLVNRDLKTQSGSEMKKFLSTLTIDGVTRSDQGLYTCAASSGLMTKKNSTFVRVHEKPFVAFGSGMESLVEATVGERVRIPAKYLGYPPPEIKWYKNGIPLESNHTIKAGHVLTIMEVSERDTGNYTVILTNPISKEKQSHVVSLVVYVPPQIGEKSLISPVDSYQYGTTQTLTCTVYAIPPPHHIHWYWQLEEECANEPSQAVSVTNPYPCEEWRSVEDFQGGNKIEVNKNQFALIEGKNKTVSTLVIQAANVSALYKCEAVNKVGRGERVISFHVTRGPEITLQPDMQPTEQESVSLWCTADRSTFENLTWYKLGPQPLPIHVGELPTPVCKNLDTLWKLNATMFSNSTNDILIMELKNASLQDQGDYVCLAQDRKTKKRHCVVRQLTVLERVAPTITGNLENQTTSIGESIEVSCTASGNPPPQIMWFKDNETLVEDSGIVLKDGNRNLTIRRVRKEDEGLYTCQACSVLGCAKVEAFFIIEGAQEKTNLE

B3: Syn-Ang-VEGFR-6 (other)
heavy (part 1 of 2): QVQLQQSGPELVKPGASVKMSCKASGYTFTDYVISWVKQRTGQGLEWIGEIYPGSGSTYYNEKFKGKASLTADKSSNTAYMQLSSLTSADSAVYFCVRSRGDYYAMDYWGQGTSVTVSS
heavy (part 2 of 2): TGSDDLCYTFPCMHY
light: DIQMTQSPSSLSASLGGKVTITCKASQDINNYITWYQHKPGKGPRLLIHYTSTLQPGIPSRFSGSGSGRDYSFSISNLEPEDIATYYCLQYDNLLTFGGGTKLEIK
notes: Chimeric (human IgG1) SAITAng-2-2 with the peptide at the C-terminus of the heavy chain; also called SAITAng-2-2 x DTN6VEGFR-2-1; not shown: human IgG1 heavy chain constant region with Fc region, from the vector; human light chain constant region, printed as 'constant region of human IgG1'
- IC50 [1]: 1.56 nM
- IC50 [2]: 1.91 nM

B4: Syn-Ang-VEGFR-7 (other)
heavy (part 1 of 2): QVQLQQSGPELVKPGASVKMSCKASGYTFTDYVISWVKQRTGQGLEWIGEIYPGSGSTYYNEKFKGKASLTADKSSNTAYMQLSSLTSADSAVYFCVRSRGDYYAMDYWGQGTSVTVSS
heavy (part 2 of 2): EAGKETCGYEWQYCPRP
light: DIQMTQSPSSLSASLGGKVTITCKASQDINNYITWYQHKPGKGPRLLIHYTSTLQPGIPSRFSGSGSGRDYSFSISNLEPEDIATYYCLQYDNLLTFGGGTKLEIK
notes: Chimeric (human IgG1) SAITAng-2-2 with the peptide at the C-terminus of the heavy chain; also called SAITAng-2-2 x DTN8VEGFR-2-2; not shown: human IgG1 heavy chain constant region with Fc region, from the vector; human light chain constant region, printed as 'constant region of human IgG1'
- IC50 [1]: 1.76 nM
- IC50 [2]: 2.01 nM

B6: Syn-Ang-VEGFR-8 (other)
heavy (part 1 of 2): QVQLQQSGPELVKPGASVKMSCKASGYTFTDYVISWVKQRTGQGLEWIGEIYPGSGSTYYNEKFKGKASLTADKSSNTAYMQLSSLTSADSAVYFCVRSRGDYYAMDYWGQGTSVTVSS
heavy (part 2 of 2): EAGAYWCKAWGLSPCLVT
light: DIQMTQSPSSLSASLGGKVTITCKASQDINNYITWYQHKPGKGPRLLIHYTSTLQPGIPSRFSGSGSGRDYSFSISNLEPEDIATYYCLQYDNLLTFGGGTKLEIK
notes: Chimeric (human IgG1) SAITAng-2-2 with the peptide at the C-terminus of the heavy chain; also called SAITAng-2-2 x DTN9VEGFR-2-3; not shown: human IgG1 heavy chain constant region with Fc region, from the vector; human light chain constant region, printed as 'constant region of human IgG1'
- IC50 [1]: 1.48 nM
- IC50 [2]: 2.22 nM

Further lines, results first:

- IC50 [1]: 1.16 nM
- IC50 [2]: 1.22 nM
B1: Syn-Ang-VEGFR-16 (other)
heavy (part 1 of 2): QVQLQQSGAELARPGASVKLSCKASGYTFTDYYINWAKQRTGQGLEWIGEIYPGSGDTYYNEKFKGKATLTADKSSSTAYMQLSSLTSEDSAVYFCARYGYKGVYFDYWGQSTTLTVSS
heavy (part 2 of 2): TGSDDLCYTFPCMHY
light: ENVLTQSPAIMAASLGQKVTMTCSASSSVSSSYLHWYQQKSGASPKPLIHRTSNLASGVPARFSGSGSGTSYSLTISSVEAEDDATYYCQQWSGYPFTFGAGTKLELK
notes: Chimeric (human IgG1) SAITAng-2-4 with the peptide at the C-terminus of the heavy chain; also called SAITAng-2-4 x DTN6VEGFR-2-1; not shown: human IgG1 heavy chain constant region with Fc region, from the vector; human light chain constant region, printed as 'constant region of human IgG1'

- IC50 [1]: 1.05 nM
- IC50 [2]: 0.998 nM
B2: Syn-Ang-VEGFR-17 (other)
heavy (part 1 of 2): QVQLQQSGAELARPGASVKLSCKASGYTFTDYYINWAKQRTGQGLEWIGEIYPGSGDTYYNEKFKGKATLTADKSSSTAYMQLSSLTSEDSAVYFCARYGYKGVYFDYWGQSTTLTVSS
heavy (part 2 of 2): EAGKETCGYEWQYCPRP
light: ENVLTQSPAIMAASLGQKVTMTCSASSSVSSSYLHWYQQKSGASPKPLIHRTSNLASGVPARFSGSGSGTSYSLTISSVEAEDDATYYCQQWSGYPFTFGAGTKLELK
notes: Chimeric (human IgG1) SAITAng-2-4 with the peptide at the C-terminus of the heavy chain; also called SAITAng-2-4 x DTN8VEGFR-2-2; not shown: human IgG1 heavy chain constant region with Fc region, from the vector; human light chain constant region, printed as 'constant region of human IgG1'

- IC50 [1]: 2.04 nM
- IC50 [2]: 1.95 nM
B5: Syn-Ang-VEGFR-9 (other)
heavy (part 1 of 2): QVQLQQSGPELVKPGASVKMSCKASGYTFTDYVISWVKQRTGQGLEWIGEIYPGSGSTYYNEKFKGKASLTADKSSNTAYMQLSSLTSADSAVYFCVRSRGDYYAMDYWGQGTSVTVSS
heavy (part 2 of 2): TGSGRMCDGSGPPTNCWFT
light: DIQMTQSPSSLSASLGGKVTITCKASQDINNYITWYQHKPGKGPRLLIHYTSTLQPGIPSRFSGSGSGRDYSFSISNLEPEDIATYYCLQYDNLLTFGGGTKLEIK
notes: Chimeric (human IgG1) SAITAng-2-2 with the peptide at the C-terminus of the heavy chain; also called SAITAng-2-2 x DTN10VEGFR-2-4; not shown: human IgG1 heavy chain constant region with Fc region, from the vector; human light chain constant region, printed as 'constant region of human IgG1'
